Reference: patent US20240239890A1 (Chugai, published 2024)

B1: RNN0242nn with rabbit constant region (antibody)
heavy: QQQLEEYGGDLVQPEGSLTLTCKASGLDFSSSYWMCWVRQAPGKGLEWIACIYTGSSGSTSYASWAKGRFTISKTSSTTVTLQMTSLTAADTATYFCARDYDYTAYAYGIMSLWGPGTLVTVSSGQPKAPSVFPLAPCCGDTPSSTVTLGCLVKGYLPEPVTVTWNSGTLTNGVRTFPSVRQSSGLYSLSSVVSVTSSSQPVTCNVAHPATNTKVDKTVAPSTCSKPMCPPPELLGGPSVFIFPPKPKDTLMISRTPEVTCVVVDVSQDDPEVQFTWYINNEQVRTARPPLREQQFNSTIRVVSTLPIAHQDWLRGKEFKCKVHNKALPAPIEKTISKARGQPLEPKVYTMGPPREELSSRSVSLTCMINGFYPSDISVEWEKNGKAEDNYKTTPTVLDSDGSYFLYSKLSVPTSEWQRGDVFTCSVMHEALHNHYTQKSISRSPGK
light: AEIVMTQTPSSKSAAVGDTVTIKCQASQSITSYLSWYQQKPGQPPKLLIYRASTLASGVPSRFKGSGSGTQFTLTISDLECADAATYYCQSNYGSYSTNYGVTFGGGTKVEIKRDPVAPTVLIFPPAADQVATGTVTIVCVANKYFPDVTVTWEVDGTTQTTGIENSKTPQNSADCTYNLSSTLTLTSTQYNSHKEYTCKVTQGTTSVVQSFNRGDC
B2: RNN0193jj with rabbit constant region (antibody)
heavy: QSLEESGGDLVKPGASLTLTCTASGFSFSNNYWICWVRQAPGKGPEWIACIYTGDGDTDYASWAKGRFTISKTSSTTVTLQMTSLTAADTATYFCAREAGTVDGVWNYVFNLWGPGTLVTVSSGQPKAPSVFPLAPCCGDTPSSTVTLGCLVKGYLPEPVTVTWNSGTLTNGVRTFPSVRQSSGLYSLSSVVSVTSSSQPVTCNVAHPATNTKVDKTVAPSTCSKPMCPPPELLGGPSVFIFPPKPKDTLMISRTPEVTCVVVDVSQDDPEVQFTWYINNEQVRTARPPLREQQFNSTIRVVSTLPIAHQDWLRGKEFKCKVHNKALPAPIEKTISKARGQPLEPKVYTMGPPREELSSRSVSLTCMINGFYPSDISVEWEKNGKAEDNYKTTPTVLDSDGSYFLYSKLSVPTSEWQRGDVFTCSVMHEALHNHYTQKSISRSPGK
light: AQVLTQTPSPVSAAVGGTVTISCQSSQSVYNDNLAWFQQKPGQPPKLLIYDASTLASGVPSRFKGSGSGTQFTLTISKLQCDDAATYYCQGVYIGHIFTFGGGTKVEIKRDPVAPTVLIFPPAADQVATGTVTIVCVANKYFPDVTVTWEVDGTTQTTGIENSKTPQNSADCTYNLSSTLTLTSTQYNSHKEYTCKVTQGTTSVVQSFNRGDC
B3: RNN0246jj with rabbit constant region (antibody)
heavy: QSVEESGGRLVTPDETLTLTCTVSGFSLNNYHMIWVRQAPGEGLEYIGFINTGGSAYYANWAKGRFTISKTSTTVDLKITSPTTEDTATYFCASVSWRTDYSFELWGPGTLVTVSSGQPKAPSVFPLAPCCGDTPSSTVTLGCLVKGYLPEPVTVTWNSGTLTNGVRTFPSVRQSSGLYSLSSVVSVTSSSQPVTCNVAHPATNTKVDKTVAPSTCSKPMCPPPELLGGPSVFIFPPKPKDTLMISRTPEVTCVVVDVSQDDPEVQFTWYINNEQVRTARPPLREQQFNSTIRVVSTLPIAHQDWLRGKEFKCKVHNKALPAPIEKTISKARGQPLEPKVYTMGPPREELSSRSVSLTCMINGFYPSDISVEWEKNGKAEDNYKTTPTVLDSDGSYFLYSKLSVPTSEWQRGDVFTCSVMHEALHNHYTQKSISRSPGK
light: AQVLTQTPSPVSAAVGGTVTISCQASQSVYANNRLAWFQQKPGQPPKLLIYSASTLASGVPSRFKGSGSGTQFTLTISGVQCDDAATYYCAGAYTGNIYTFGGGTKVEIKRDPVAPTVLIFPPAADQVATGTVTIVCVANKYFPDVTVTWEVDGTTQTTGIENSKTPQNSADCTYNLSSTLTLTSTQYNSHKEYTCKVTQGTTSVVQSFNRGDC

Target: T1, Human RNF43 ECD with Fc region fused on its C-terminus (human)
T1 construct: also called RNF43-Fc
T1 chain: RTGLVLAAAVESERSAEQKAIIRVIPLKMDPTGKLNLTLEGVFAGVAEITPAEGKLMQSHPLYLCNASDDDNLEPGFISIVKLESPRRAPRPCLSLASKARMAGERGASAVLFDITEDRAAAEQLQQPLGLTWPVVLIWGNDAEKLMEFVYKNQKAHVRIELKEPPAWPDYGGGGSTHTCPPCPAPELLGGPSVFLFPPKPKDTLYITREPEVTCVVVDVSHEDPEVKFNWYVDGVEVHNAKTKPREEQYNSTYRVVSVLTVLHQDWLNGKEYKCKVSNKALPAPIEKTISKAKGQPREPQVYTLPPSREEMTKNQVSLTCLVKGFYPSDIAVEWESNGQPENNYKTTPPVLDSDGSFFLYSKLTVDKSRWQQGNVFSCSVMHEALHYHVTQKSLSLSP
Experiment: competition ELISA on coated RNF43-Fc; first antibody unlabelled at 10x its EC50, second (reference) antibody biotinylated RNN0246jj at its EC50
Procedure: (§1) EC50 concentration for the binding of each anti-RNF43 monospecific antibody to RNF43-Fc (described in Example 2) was first determined by ELISA assay, using the biotinylated antibodies. In brief, RNF43-Fc at 5 micro g/mL or 1 micro g/mL was coated on Maxisorp plate (NUNC) at 4 degrees C. overnight. The coated plate was then washed with PBS-T, followed by blocking with Blocking One solution (Nacalai Tesque) for 2 hours at room temperature. Serially diluted, biotinylated anti-RNF43 monospecific antibody was then added and incubated for 1 hour at room temperature. After washing with PBS-T, StAv-HRP (PIERCE) was added and incubated for 1 hour at room temperature. After washing with PBS-T, ABTS Peroxidase substrate (SeraCare Life Sciences) was added and signal intensity was measured using Multiskan™ GO Microplate Spectrophotometer. EC50 concentration for the binding of the anti-RNF43 monospecific antibody to RNF43-Fc was calculated using Non-linear regression 4-parameter fit. The normalized absorbance at 405 nm/570 nm measured when EC50 concentration of anti-RNF43 antibodies was applied is denoted as AO.
(§2) To evaluate binding competition between the anti-RNF43 monospecific antibodies, ELISA assay with similar setting was conducted. RNF43-Fc was first coated in Maxisorp plate overnight. […] After washing with PBS-T, ABTS Peroxidase substrate was added and signal intensity was measured using Multiskan™ GO Microplate Spectrophotometer. The normalized absorbance at 405 nm/570 nm is denoted as A.

In order of rising “binding inhibition (%)” value:
1. B2  5.04%
2. B3  29.8%
3. B1  74.7%

Target: T1, Human RNF43 ECD with Fc region fused on …
Experiment: competition ELISA on coated RNF43-Fc; first antibody unlabelled at 10x its EC50, second (reference) antibody biotinylated RNN0242nn at its EC50
Procedure: as §1, §2

In order of falling “binding inhibition (%)” value:
1. B1  86.8%
2. B3  22.6%
3. B2  21.3%

Target: T1, Human RNF43 ECD with Fc region fused on …
Experiment: competition ELISA on coated RNF43-Fc; first antibody unlabelled at 10x its EC50, second (reference) antibody biotinylated RNN0187jj at its EC50
Procedure: as §1, §2

In order of rising “binding inhibition (%)” value:
1. B2  3.21%
2. B1  11.4%
3. B3  12.6%

Target: T1, Human RNF43 ECD with Fc region fused on …
Experiment: competition ELISA on coated RNF43-Fc; first antibody unlabelled at 10x its EC50, second (reference) antibody biotinylated RNN0207ii at its EC50
Procedure: as §1, §2

In order of rising “binding inhibition (%)” value:
1. B2  -1.42%
2. B3  -0.14%
3. B1  1.62%

Target: T1, Human RNF43 ECD with Fc region fused on …
Experiment: competition ELISA on coated RNF43-Fc; first antibody unlabelled at 10x its EC50, second (reference) antibody biotinylated RNN0193jj at its EC50
Procedure: as §1, §2

In order of rising “binding inhibition (%)” value:
1. B3  1.17%
2. B1  12.6%
3. B2  50.2%

Target: T1, Human RNF43 ECD with Fc region fused on …
Experiment: competition ELISA on coated RNF43-Fc; first antibody unlabelled at 10x its EC50, second (reference) antibody biotinylated RNN0192nn at its EC50
Procedure: as §1, §2

In order of falling “binding inhibition (%)” value:
1. B1  9.66%
2. B3  -0.13%
3. B2  -15.2%
